Laboratory results from patent publication US20210196823A1, “Methods of Treating Metabolic Disease” (Pfizer Inc., priority 2018, published 2021).

How the values were obtained:
Type in all cases: cell-based
Huh7 cells [1] = test: qRT-PCR of BMP/SMAD target genes in Huh7 cells treated with ERFE; settings: Huh7, mouse ERFE 10 μg/ml vs vehicle
Protocol: (§1) (b) Gene expression microarray: Microarray analysis of Huh7 cells treated with mouse or human erythroferrone was carried out to test the activity of erythroferrone on the BMP/SMAD signalling pathway. Generally cell treatments were carried out according to the following protocol: Huh7 and HepG2 were cultured in Dulbecco's Modified Eagle's Medium—High Glucose (Sigma), supplemented with 10% Fetal Bovine Serum (Sigma), 1% Penicillin-Streptomycin (Sigma) and 1% L-Glutamine (Sigma), unless otherwise indicated. Cells were plated 24 h before treatments in 24-well (gene expression analysis) or 12-well (protein analysis) cell culture plates. At the time of treatment, cells were washed with PBS and fresh media was added.
(§2) (c) RNA isolation, cDNA synthesis and qRT-PCR: Suppression of several BMP-target genes: HAMP, ID1, ID3, SMAD6 and SMAD7 was further confirmed by qRT-PCR. Cells were lysed and RNA was isolated using the RNeasy Plus kit (Qiagen), followed by RNA quantification and quality assessment using Nanodrop (Thermo Fisher). cDNA was synthesized using the High Capacity RNA-to-cDNA kit (Applied Biosystems). Gene expression was assessed using quantitative real-time PCR with Taqman Gene Expression Master Mix and inventoried Taqman Gene expression assays (Applied Biosystems) specific for the genes of interest according to the manufacturer's instructions.

HepG2 cells = test: HAMP and ID1 qRT-PCR in HepG2 cells treated with BMPs with or without mouse ERFE; settings: 2 nM BMP 2/6, BMP6 or BMP7 + 10 μg/ml mouse ERFE, 6 h, serum-free media
Protocol: as §1
as §2, with “instructions. […]” for “instructions.”

C2C12 Bre-Luc cells = test: BMP/SMAD signalling output in C2C12 Bre-Luc cells; settings: 24 h
Protocol: As HAMP can be stimulated by a variety of ligands, we further tested the effect of ERFE in cells treated with various BMPs by measuring BMP/SMAD signalling output in C2C12 Bre-Luc cells. C2C12 Bre-Luc cells were treated with 2 nM of BMP in combination with a gradient of mouse ERFE concentrations (7.5 pM to 0.5 μM) for 24 h, and luminescence measured in each well. […] Analogous data confirmed suppression of HAMP and ID1 in cells treated with ERFE and BMP 2/6, BMP5, BMP6 and BMP7, FIG. 3F.
The inhibitory effect of EFE on selected BMPs was tested in-vitro in three different cell types, C2C12, Huh7 and HepG2. Huh7 (FIG. 3G, 3H) and HepG2 (FIGS. 3J, 3K) cells were treated with 2 nM of BMPs, alone or in combination with 10 μg/ml of mouse ERFE, in serum-free media, and analysed 6 h after treatment. Gene expression of HAMP and ID1 was measured by qRT-PCR. Results expressed as fold change relative to non-treated cells from 3 independent experiments. Statistical significance was analysed for each pair of BMP treatments. (*p<0.05, **p<0.01, ***p<0.001, ****p<0.0001, Student's t test). Additionally we tested the effect of ERFE in cells treated with various BMPs by measuring BMP/SMAD signalling output in C2C12 Bre-Luc cells (FIG. 3E). C2C12 Bre-Luc cells were treated with 2 nM of BMP in combination with a gradient of mouse ERFE concentrations (7.5 pM to 0.5 μM) for 24 h, and luminescence measured in each well.

Huh7 cells [2] = test: Gene expression microarray of Huh7 cells treated with ERFE; settings: Huh7, ERFE 10 μg/ml, 24 h
Protocol: as §1
For the purposes of gene expression microarray analysis RNA was isolated from the Huh7 cells using RNeasy Plus kit (Qiagen), this was followed by RNA quantification and quality assessment using a 2100 Bioanalyzer (Agilent). RNA was converted into biotin labelled cRNA for hybridization and gene expression analysed using the Human HT12v4.0 Expression Beadchip (Illumina) and the Illuminas's iScan Scanner. Raw data was normalised using the lumi package (Bioconductor) and compared using LIMMA (Bioconductor). Statistical significance was set at p<0.05.

B1: mouse ERFE: recombinant mouse erythroferrone (SEQ ID NO: 2); monoFC-muErfe is a monomeric FC murine ERFE fusion (protein, listed as Mus musculus)
chain: MASRRPVGARTLLACASLLAAMGLGVPESAEPVGTHARPQPPGAELPAPPANSPPEPIAHAHSVDPRDAWMLFVKQSDKGINSKRRSKARRLKLGLPGPPGPPGPQGPPGPFIPSEVLLKEFQLLLKGAVRQRESHLEHCTRDLPASGSPSRVPAAQELDSQDPGALLALLAATLAQGPRAPRVEAAFHCRLRRDVQVDRRALHELGIYYLPEVEGAFHRGPGLNLTSGQYTAPVAGFYALAATLHVALTEQPRKGPTRPRDRLRLLICIQSLCQHNASLETVMGLENSSELFISVNGVLYLQAGHYSVFLDNASGSSLTVRSGSHFSAILLGL
Huh7 cells [1]
  expression of BMP-target genes HAMP, ID1, ID3, SMAD6 and SMAD7: Suppression
  expression of FGA (JAK/STAT3 target gene): no changes
HepG2 cells
  HAMP and ID1 expression / BMP/SMAD signalling in BMP-treated HepG2 cells: suppresses
C2C12 Bre-Luc cells; 2 nM BMP2, mouse ERFE 7.5 pM to 0.5 μM
  BMP2 activity (luminescence): no effect
C2C12 Bre-Luc cells; 2 nM BMP4, mouse ERFE 7.5 pM to 0.5 μM
  BMP4 activity (luminescence): no effect
C2C12 Bre-Luc cells; 2 nM BMP5, mouse ERFE 7.5 pM to 0.5 μM
  activation of BMP signalling by BMP5 (luminescence): dose-dependent decrease
C2C12 Bre-Luc cells; 2 nM BMP6, mouse ERFE 7.5 pM to 0.5 μM
  activation of BMP signalling by BMP6 (luminescence): dose-dependent decrease
C2C12 Bre-Luc cells; 2 nM BMP7, mouse ERFE 7.5 pM to 0.5 μM
  activation of BMP signalling by BMP7 (luminescence): dose-dependent decrease
C2C12 Bre-Luc cells; 2 nM BMP9, mouse ERFE 7.5 pM to 0.5 μM
  BMP9 activity (luminescence): no effect
Huh7 cells [2]
  target genes of the JAK/STAT3 pathway: No changes
Huh7 cells [2]; 5 are BMP/SMAD targets ID1, ID2, ID3, SMAD6, HAMP
  number of suppressed genes: 12
